Test results: patent US20250333503A1

How the values were obtained:
[1] = biological target: mouse PVRL2 endogenously expressed on B16-F10 cells (mouse) (UniProt P32507); test: FACS dose response on B16-F10 cells
[2] = biological target: mouse PVRL2 splice variant 2 on HEK293 cells (mouse); test: FACS dose response on HEK293 OX mouse PVRL2

Chain of mouse PVRL2 endogenously expressed on B16-F10 cells (mouse) (P32507 32-530): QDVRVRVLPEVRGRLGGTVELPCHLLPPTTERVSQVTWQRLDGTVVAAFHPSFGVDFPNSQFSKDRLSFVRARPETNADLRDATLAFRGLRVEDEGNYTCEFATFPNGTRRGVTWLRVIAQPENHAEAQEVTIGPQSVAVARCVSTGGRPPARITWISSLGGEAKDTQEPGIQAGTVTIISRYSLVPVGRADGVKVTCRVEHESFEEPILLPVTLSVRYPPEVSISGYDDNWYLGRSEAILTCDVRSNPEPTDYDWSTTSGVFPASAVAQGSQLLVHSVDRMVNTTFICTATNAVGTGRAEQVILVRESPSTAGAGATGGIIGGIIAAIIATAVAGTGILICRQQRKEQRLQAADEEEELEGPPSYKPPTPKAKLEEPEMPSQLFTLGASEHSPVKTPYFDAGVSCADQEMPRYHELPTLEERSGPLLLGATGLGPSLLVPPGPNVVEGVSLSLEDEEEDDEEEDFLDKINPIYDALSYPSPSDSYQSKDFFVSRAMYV

concentration at saturation of binding [1]: 12.5 µg/mL
concentration at saturation of binding [2]: 12.5 µg/mL
Substance: PVRIG mECD-mIg fusion protein (ECD of mouse PVRIG fused to Fc of mouse IgG2a) (Fc fusion)
